Test results from patent US20230295259A1 (Protagonist Therapeutics, Inc., priority 2020, published 2023).
Each block holds one molecule with its values, some of them ahead of it. Starred links: 1 amine or outer side, 2 acyl side, 3 side chain; linkers in the order of their positions; H or OH if unused. Positions of bridges follow the written chain, without caps; N, C: chain ends. Groups on a side chain read outwards from the residue. No end group written: not given here. *: point of attachment. C18 diacid = O=C(O)CCCCCCCCCCCCCCCCC(=O)*; γGlu = O=C(O)[C@H](CCC(=O)[*:2])N[*:1]; Isovaleryl = CC(C)CC(=O)*; AEEA = NCCOCCOCC(=O)O

Key:
LAD2 cells = assay type: cell-based, human
Source text: In anaphylactoid reactions, the main mechanism involves the direct stimulation of mast cells or basophils, leading to the release of anaphylactic mediators such as histamine and β-hexosaminidase. A recent study by McNeil et al. (McNeil B D et al., 2015) reported that MrgprX2, a specific membrane receptor on human mast cells, induces anaphylactoid reactions. The LAD2 (Laboratory of Allergic Diseases 2) human mast cell line, derived from human mast cell sarcoma/leukemia (Kirshenbaum et al., 2003), is commonly employed to study anaphylactoid reactions, because its biological properties are identical to those of primary human mast cells, including the overexpression of the MrgprX2 receptor and sensitivity towards degranulating peptides (Kulka et al., 2008). The release of anaphylactic mediators such as f-hexosaminidase, is assessed by fluorometric quantification.
On the day of the assay, serial dilutions of compounds were added to LAD2 cells plated at 20000 cells/well in a 96-well plate. After incubation for 30 minutes, the amount of β-hexosaminidase released into the supernatants and in cell lysates was quantified using the fluorogenic substrate 4-methylumbelliferyl-N-acetyl-b-D-glucosaminide. Dose-response curves were generated by plotting the % of β-hexosaminidase release (y-axis) against the concentrations of peptides tested (x-axis). […]. (Table 2D).

[1] = Stability in simulated intestinal fluid (FaSSIF with 1% pancreatin); assay type: in vitro ADME; details: pig, pH 6.5, Table 2A, 20 μM in FaSSIF with 1% pancreatin, 37° C., percent in brackets not explained, read-out: SIF Half life
Protocol: FaSSIF was prepared by dissolving 1.2 g porcine pancreatin (Chem-supply, PL378) in 100 mL Blank FaSSIF and stirred at room temperature for 30 minutes. The solution was filtered through 0.45 μm membrane and aliquot and stored at −20° C.
Experimental compounds of interest (20 μM) were incubated with pre-warmed FaSSIF (1% pancreatin in final incubation mixture) at 37° C. Aliquots were taken at various time points up to 24 hours (e.g. 0, 0.25, 1, 3, 6 and 24 hr), and immediately quenched with 4 volumes of organic solvent (acetonitrile/methanol (1:1) and 0.1% formic acid, containing 1 μM internal standard). Quenched samples were stored at 4° C. until the end of the experiment and centrifuged at 4,000 rpm for 10 minutes. The supernatant was diluted 1:1 with deionized water and analyzed using LC-MS. Percentage remaining at each time point was calculated based on the peak area ratio (analyte over internal standard) relative to the initial level at time zero. Half-lives were calculated by fitting to a first-order exponential decay equation using GraphPad.
Compounds of interest (at concentration of 20 μM) were mixed with pre-warmed FaSSIF (1% pancreatin in final working solution). The solution mixture was aliquoted and incubated at 37° C. The number of aliquots required was equivalent to the number of time points (e.g. 0, 0.25, 1, 3, 6 and 24 hr). […]

[2] = biological target: T1, ferroportin (endogenously expressed in T47D cells) (Homo sapiens, UniProt Q9NP59); experiment: T47D cell-based ferroportin internalization assay in presence of 0.5% mouse serum albumin (AF647-conjugated detection peptide, flow cytometry); details: read-out: IC50: T47D Internalization MSA
T1 construct: is a human breast carcinoma adherent cell line which endogenously expresses ferroportin; host or cells: T47D
T1 sequence (Q9NP59 1-571): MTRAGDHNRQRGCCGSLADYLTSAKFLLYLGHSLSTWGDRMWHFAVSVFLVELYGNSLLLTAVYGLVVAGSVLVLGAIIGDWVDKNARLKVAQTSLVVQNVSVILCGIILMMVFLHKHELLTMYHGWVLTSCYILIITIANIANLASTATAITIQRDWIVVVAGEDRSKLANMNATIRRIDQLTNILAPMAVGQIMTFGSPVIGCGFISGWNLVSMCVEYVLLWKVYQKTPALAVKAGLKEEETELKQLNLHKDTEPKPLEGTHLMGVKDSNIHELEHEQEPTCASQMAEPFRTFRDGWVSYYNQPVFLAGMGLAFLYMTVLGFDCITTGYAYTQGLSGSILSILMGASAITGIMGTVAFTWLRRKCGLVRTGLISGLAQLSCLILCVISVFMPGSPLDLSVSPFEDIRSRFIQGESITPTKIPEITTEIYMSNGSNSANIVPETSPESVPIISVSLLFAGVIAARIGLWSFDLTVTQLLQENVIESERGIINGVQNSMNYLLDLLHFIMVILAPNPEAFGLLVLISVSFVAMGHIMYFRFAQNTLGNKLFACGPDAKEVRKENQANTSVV
Protocol: The potency of the peptides in causing ferroportin internalization was evaluated in a T47D cell-based assay. […] In this internalization assay, the potency of the test peptides was evaluated in the presence of serum albumin, which is the main protein component in the blood. T47D cells were maintained in RPMI media (containing required amount of fetal bovine serum) and regularly sub-cultured. […] The test peptide dilution series were allowed to incubate at room temperature for 30 min. Then the media was aspirated from the 96-well cell plate and test peptide dilution series were added. After 1 hr incubation, the media with test peptides was aspirated out and AF647-conjugated detection peptide was added at fixed concentration of 200 nM. […] The cells were washed again after a 2 hr incubation in preparation for flow cytometry analysis. The Median Fluorescence Intensity (MFI) of the AF647-positive population was measured (after removing dead cells and non-singlets from the analysis). The MFI values were used to generate a dose-response curve and obtain IC50 potencies for the test peptides.

human ferroportin = biological target: T2, human ferroportin (Homo sapiens, UniProt Q9NP59); experiment: FPN activity assay: internalization/degradation of ferroportin-GFP in stably transfected HEK293 cells (decrease in GFP fluorescence); assay type: cell-based; details: Table 2B; HEK293 cells expressing human ferroportin-GFP, at least 18 hours incubation; read-out: FPN EC50
T2 construct: expressed in transfected cells
T2 sequence (Q9NP59 1-571): T1 sequence (Q9NP59 1-571)
Protocol: Following internalization, the ferroportin protein is degraded.
A retro inverse peptide is a peptide with a reversed sequence in all D amino acids. An example is that Hy-Glu-Thr-His-NH2 becomes Hy-DHis-DThr-DGlu-NH2. The EC50 of these reference compounds for ferroportin internalization/degradation was determined according to the FPN activity assay described above. These peptides served as control standards.
These values were determined as described herein.

[3] = biological target: human ferroportin (SLC40A1) fused in frame with GFP, stably expressed in HEK293 cells (human) (UniProt Q9NP59); experiment: cell-based or functional assay
[4] = biological target: T3, human ferroportin (SLC40A1) fused in frame with GFP, stably expressed in HEK293 cells (human, UniProt Q9NP59 1-571); experiment: cell-based or functional assay
T3 sequence (looked up): T1 sequence (Q9NP59 1-571)

[5] = biological target: T3, human ferroportin (SLC40A1) fused in …; experiment: cell-based or functional assay; remark: listed apart in the source
[6] = biological target: T4, ferroportin endogenously expressed on T47D human breast carcinoma cells (human, UniProt Q9NP59 1-571); experiment: cell-based or functional assay
T4 sequence (looked up): T1 sequence (Q9NP59 1-571)

Molecule: CC[C@H](C)[C@@H]1NC(=O)[C@@H](NC(=O)[C@@H]2CCCN2C(=O)[C@@H](NC(=O)[C@H](Cc2cnc[nH]2)NC(=O)[C@@H](NC(=O)[C@H](CCC(=O)O)NC(=O)CC(C)C)[C@@H](C)O)C(c2ccccc2)c2ccccc2)CSSC[C@@H](C(N)=O)NC(=O)[C@@H](CCCCN)NC(=O)C[C@H](Cc2ccccc2)NC(=O)[C@H](CCCCNC(=O)COCCOCCNC(=O)COCCOCCNC(=O)[C@H](CN)NC(=O)CCCCCCCCCCCCCCCCC(=O)O)NC1=O [Compound 278, Isovaleric Acid-E-T-H-[Dpa]-P—C—I-[Lys(1PEG2_1PEG2_Dap_C18_Diacid)]-[bhPhe]-[(D)Lys]-C—NH2]
EC50 (LAD2 cells): 15500 nM
IC50 [2]: 14.2 nM
DC50 (human ferroportin): 4.3 nM

Molecule: Hepcidin (peptide)
Potency EC50 [3]: 34 nM

Molecule: CC[C@H](C)[C@@H]1NC(=O)[C@@H](NC(=O)[C@@H]2CCCN2C(=O)[C@@H](NC(=O)[C@H](Cc2cnc[nH]2)NC(=O)[C@@H](NC(=O)[C@H](CCC(=O)OC)NC(=O)CC(C)C)[C@@H](C)O)C(c2ccccc2)c2ccccc2)CSSC[C@@H](C(N)=O)NC(=O)[C@@H](CCCCN)NC(=O)C[C@H](Cc2ccccc2)NC(=O)[C@H](CCCCNC(=O)COCCOCCNC(=O)COCCOCCNC(=O)[C@H](CN)NC(=O)CCCCCCCCCCCCCCCCC(=O)O)NC1=O [Compound 279, Isovaleric Acid-[Glu_OMe]-T-H-[Dpa]-P—C—I-[Lys(1PEG2_1PEG2_Dap_C18_Diacid)]-[bhPhe]-[(D)Lys]-C—NH2]
EC50 (LAD2 cells): 8000 nM
IC50 [2]: 15.4 nM

B2: Compound 611 (peptide)
peptide: XEXHXPCIXXXXC
modifications: not fully specified; [Isovaleric Acid]-E-S-H-[Dpa]-P-C-I-[(D)Lys]-[aMePhe]-[Lys(PEG12_Palm)]-[(D)Lys]-C-NH2
FPN IC50 (nM), grade: *=>500 nM [5]: > 500 nM

Molecule: Isovaleryl-ETHFPCIK([AEEA-AEEA-γGlu-C18 diacid])FEPRSK(Ac)GCT (disulfide 6-16 (inferred)) [Compound 214]
FPN EC50 [4]: > 3000 nM

B3: Compound 272 (peptide)
peptide: XETHXXCIXXXC
modifications: Isovaleric Acid-E-T-H-[Dpa]-[Npc]-C-I-[Lys(1PEG2_1PEG2_IsoGlu_C18_Diacid)]-[bhPhe]-[(D)Lys]-C-NH2
IC50: T47D Internalization MSA [6]: 137 nM

Now from value to molecule:

EC50 (LAD2 cells): 12900 nM
half-life at 20 μM [1]: 1.5 h
Molecule: CC[C@H](C)[C@@H]1NC(=O)[C@@H](NC(=O)[C@@H]2CCCN2C(=O)[C@@H](NC(=O)[C@H](Cc2cnc[nH]2)NC(=O)[C@@H](NC(=O)[C@H](CCC(=O)O)NC(=O)CC(C)C)C(C)O)C(c2ccccc2)c2ccccc2)CSSC[C@@H](C(N)=O)NC(=O)[C@@H](CCCCN)NC(=O)C[C@H](Cc2ccccc2)NC(=O)[C@H](CCCCNC(=O)COCCOCCNC(=O)COCCOCCNC(=O)CCCCCNC(=O)CCCCCCCCCCCCCCCCC(=O)O)NC1=O (stereo partly drawn) [Compound 12, Isovaleric Acid-E-T-H-[Dpa]-P-[Cys]-I-[Lys(1Peg2_1Peg2_Ahx_C18_Diacid)]-[bhPhe]-[(D)Lys]-[Cys]-NH2]

Potency EC50 (nM) [3]: > 10000 nM
Molecule: RI-Mini Hepcidin (peptide)

Potency EC50 [3]: 712 nM
Molecule: Mini-Hepcidin 1-9 (peptide)

FPN EC50 [4]: > 3000 nM
Molecule: Isovaleryl-ETHFPCIK([AEEA-AEEA-γGlu-C18 diacid])FEPRSK(Ac)GCE (disulfide 6-16 (inferred)) [Compound 215]

FPN EC50 [4]: 4.3 nM
B1: Compound 278 (peptide)
peptide: XETHXPCIXXXC
modifications: Isovaleric Acid-E-T-H-[Dpa]-P-C-I-[Lys(1PEG2_1PEG2_Dap_C18_Diacid)]-[bhPhe]-[(D)Lys]-C-NH2
